Measured values as given in patent US20200024330A1.

Legend:
Test in all cases: cell-based or functional assay
[1] = molecular target: HIV-1 Env of isolate MGRM-AE-005 (pseudovirus) (HIV-1)
[2] = molecular target: HIV-1 Env of isolate MGRM-AE-002 (pseudovirus) (HIV-1)
[3] = molecular target: HIV-1 Env of isolate 92WR021 (pseudovirus) (HIV-1)
[4] = molecular target: HIV-1 Env of isolate 92WR024 (pseudovirus) (HIV-1)
[5] = molecular target: HIV-1 Env of isolate CMU02 (pseudovirus) (HIV-1)
[6] = molecular target: HIV-1 92RW020 envelope glycoprotein (Env) on pseudovirus (HIV-1)
[7] = molecular target: HIV-1 Env of isolate MGRM-D-003 (subtype D), on pseudovirus (HIV-1)
[8] = molecular target: HIV-1 Env of isolate MG RM-A-005 (pseudovirus) (HIV-1)
[9] = molecular target: HIV-1 Env of isolate VLGCA1 (pseudovirus) (HIV-1)
[10] = molecular target: HIV-1 Env of isolate 98CN009 (subtype CRF07_BC), on pseudovirus (HIV-1)
[11] = molecular target: HIV-1 Env of isolate MG RM-A-011 (pseudovirus) (HIV-1)
[12] = molecular target: HIV-1 Env of isolate 92WR026 (pseudovirus) (HIV-1)
[13] = molecular target: HIV-1 Env of isolate 92RW009 (clade A), on pseudovirus (HIV-1)
[14] = molecular target: HIV-1 Env of isolate MGRM-Chronic-B-001 (HIV-1)
[15] = molecular target: HIV-1 Env of isolate MGRM-D-004 (subtype D), on pseudovirus (HIV-1)
[16] = molecular target: HIV-1 Env of isolate 92UG114 (subtype D), on pseudovirus (HIV-1)
[17] = molecular target: HIV-1 Env of isolate CAAN.A2 (HIV-1)
[18] = molecular target: HIV-1 Env of isolate 92WR020 (pseudovirus) (HIV-1)
[19] = molecular target: HIV-1 Env of isolate 92UG024 (subtype D), on pseudovirus (HIV-1)
[20] = molecular target: HIV-1 Env of isolate APV_17 (HIV-1)
[21] = molecular target: HIV-1 Env of isolate MGRM-D-001 (subtype D), on pseudovirus (HIV-1)
[22] = molecular target: HIV-1 Env of isolate MGRM-Chronic-B-002 (HIV-1)
[23] = molecular target: HIV-1 Env of isolate MG RM-A-007 (pseudovirus) (HIV-1)
[24] = molecular target: HIV-1 Env of isolate MGRM-AE-003 (pseudovirus) (HIV-1)
[25] = molecular target: HIV-1 Env of isolate MGRM-D-005 (subtype D), on pseudovirus (HIV-1)
[26] = molecular target: HIV-1 Env of isolate MGRM-AE-006 (pseudovirus) (HIV-1)
[27] = molecular target: HIV-1 92BR020 envelope glycoprotein (Env) on pseudovirus (HIV-1)
[28] = molecular target: HIV-1 Env of isolate 6535.3 (HIV-1)
[29] = molecular target: HIV-1 Env of isolate 92UG046 (subtype D), on pseudovirus (HIV-1)
[30] = molecular target: HIV-1 Env of isolate 92UG001 (subtype D), on pseudovirus (HIV-1)
[31] = molecular target: HIV-1 Env of isolate 94UG103 (pseudovirus) (HIV-1)
[32] = molecular target: HIV-1 Env of isolate MG RM-A-008 (pseudovirus) (HIV-1)
[33] = molecular target: HIV-1 Env of isolate MGRM-Chronic-B-008 (HIV-1)
[34] = molecular target: HIV-1 Env of isolate 93WR029 (pseudovirus) (HIV-1)
[35] = molecular target: HIV-1 Env of isolate 92UG005 (subtype D), on pseudovirus (HIV-1)
[36] = molecular target: HIV-1 Env of isolate APV_6 (HIV-1)
[37] = molecular target: HIV-1 Env of isolate MG RM-A-014 (pseudovirus) (HIV-1)
[38] = molecular target: HIV-1 Env of isolate MG RM-A-012 (pseudovirus) (HIV-1)
[39] = molecular target: HIV-1 Env of isolate MGRM-Chronic-B-004 (HIV-1)
[40] = molecular target: HIV-1 Env of isolate MGRM-Chronic-B-003 (HIV-1)
[41] = molecular target: HIV-1 Env of isolate MG RM-A-009 (pseudovirus) (HIV-1)
[42] = molecular target: HIV-1 Env of isolate 98CN006 (subtype CRF08 BC), on pseudovirus (HIV-1)
[43] = molecular target: HIV-1 Env of isolate MG RM-A-006 (pseudovirus) (HIV-1)
[44] = molecular target: HIV-1 Env of isolate 92RW008 (clade A), on pseudovirus (HIV-1)
[45] = molecular target: HIV-1 Env of isolate APV_13 (HIV-1)
[46] = molecular target: HIV-1 Env of isolate 94 KE 105 (pseudovirus) (HIV-1)
[47] = molecular target: HIV-1 Env of isolate JRFL (HIV-1)
[48] = molecular target: HIV-1 Env of isolate 93TH305 (HIV-1)
[49] = molecular target: HIV-1 Env of isolate MG RM-A-013 (pseudovirus) (HIV-1)
[50] = molecular target: HIV-1 Env of isolate 92TH021 (pseudovirus) (HIV-1)
[51] = molecular target: HIV-1 Env of isolate 92UG031 (pseudovirus) (HIV-1)
[52] = molecular target: HIV-1 Env of isolate 92UG037 (pseudovirus) (HIV-1)
[53] = molecular target: HIV-1 Env of isolate MGRM-D-002 (subtype D), on pseudovirus (HIV-1)
[54] = molecular target: HIV-1 Env of isolate MGRM-D-008 (subtype D), on pseudovirus (HIV-1)
[55] = molecular target: HIV-1 Env of isolate MGRM-AE-004 (pseudovirus) (HIV-1)
[56] = molecular target: HIV-1 Env of isolate MG RM-A-010 (pseudovirus) (HIV-1)
[57] = molecular target: HIV-1 Env of isolate 93UG077 (pseudovirus) (HIV-1)
[58] = molecular target: HIV-1 Env of isolate 92BR020 (HIV-1)
[59] = molecular target: HIV-1 Env of isolate MGRM-AE-001 (pseudovirus) (HIV-1)

4993_K13 (PGT-141) (antibody), sequence (VH): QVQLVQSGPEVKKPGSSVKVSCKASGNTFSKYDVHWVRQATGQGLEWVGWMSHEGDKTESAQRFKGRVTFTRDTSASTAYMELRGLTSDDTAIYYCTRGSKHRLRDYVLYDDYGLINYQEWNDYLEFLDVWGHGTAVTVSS
4993_K13 (PGT-141) (antibody), sequence (VL): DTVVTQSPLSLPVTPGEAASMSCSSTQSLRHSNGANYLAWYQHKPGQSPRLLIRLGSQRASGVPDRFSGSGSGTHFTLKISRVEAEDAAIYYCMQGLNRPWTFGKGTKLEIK

Substance 4993_K13 (PGT-141) (antibody) has an IC50 (µg/mL), pseudovirus neutralization [1] greater than 50 µg/mL, an IC50 (µg/mL), pseudovirus neutralization [2] greater than 50 µg/mL and an IC50 (µg/mL), pseudovirus neutralization [3] greater than 50 µg/mL. The IC50 (µg/mL), pseudovirus neutralization [4] was 0.175 µg/mL, the IC50 (µg/mL), pseudovirus neutralization [5] was greater than 50 µg/mL and the IC50 (ug/ml), neutralizing activity [6] was greater than 10 µg/mL. For the same substance, the IC50, pseudovirus neutralization [7] was greater than 50 µg/mL, the IC50 (µg/mL), pseudovirus neutralization [8] was 11.1 µg/mL and the IC50 (µg/mL), pseudovirus neutralization [9] was 2.07 µg/mL. For the same substance, the IC50, pseudovirus neutralization [10] was 1.28 µg/mL, the IC50 (µg/mL), pseudovirus neutralization [11] was greater than 50 µg/mL and the IC50 (µg/mL), pseudovirus neutralization [12] was 1.78 µg/mL. It also gave an IC50, single-round pseudovirus neutralization [13] of 0.022 µg/mL, an IC50 [14] greater than 50 µg/mL and an IC50, pseudovirus neutralization [15] greater than 50 µg/mL. The IC50, pseudovirus neutralization [16] was greater than 50 µg/mL, the IC50 [17] was greater than 50 µg/mL and the IC50 (µg/mL), pseudovirus neutralization [18] was greater than 50 µg/mL. It also gave an IC50, pseudovirus neutralization [19] greater than 50 µg/mL, an IC50 [20] of 0.59 µg/mL and an IC50, pseudovirus neutralization [21] greater than 50 µg/mL. For the same substance, the IC50 [22] was greater than 50 µg/mL, the IC50 (µg/mL), pseudovirus neutralization [23] was greater than 50 µg/mL and the IC50 (µg/mL), pseudovirus neutralization [24] was greater than 50 µg/mL. The IC50, pseudovirus neutralization [25] was 5.15 µg/mL, the IC50 (µg/mL), pseudovirus neutralization [26] was greater than 50 µg/mL and the IC50 (ug/ml), neutralizing activity [27] was greater than 10 µg/mL. It also gave an IC50 [28] greater than 50 µg/mL, an IC50, pseudovirus neutralization [29] greater than 50 µg/mL and an IC50, pseudovirus neutralization [30] greater than 50 µg/mL. It also gave an IC50 (µg/mL), pseudovirus neutralization [31] greater than 50 µg/mL, an IC50 (µg/mL), pseudovirus neutralization [32] greater than 50 µg/mL and an IC50 [33] greater than 50 µg/mL. It also gave an IC50 (µg/mL), pseudovirus neutralization [34] of 0.019 µg/mL, an IC50, pseudovirus neutralization [35] greater than 5 µg/mL and an IC50 [36] of 14.2 µg/mL. It also gave an IC50 (µg/mL), pseudovirus neutralization [37] of 0.628 µg/mL, an IC50 (µg/mL), pseudovirus neutralization [38] greater than 50 µg/mL and an IC50 [39] of 0.586 µg/mL. The IC50 [40] was 0.4 µg/mL, the IC50 (µg/mL), pseudovirus neutralization [41] was 0.029 µg/mL and the IC50, pseudovirus neutralization [42] was greater than 50 µg/mL. The IC50 (µg/mL), pseudovirus neutralization [43] was greater than 50 µg/mL, the IC50, single-round pseudovirus neutralization [44] was 0.579 µg/mL and the IC50 [45] was greater than 50 µg/mL. For the same substance, the IC50 (µg/mL), pseudovirus neutralization [46] was 0.204 µg/mL, the IC50 [47] was greater than 50 µg/mL and the IC50 [48] was greater than 50 µg/mL. It also gave an IC50 (µg/mL), pseudovirus neutralization [49] of 9.86 µg/mL, an IC50 (µg/mL), pseudovirus neutralization [50] of 0.001 µg/mL and an IC50 (µg/mL), pseudovirus neutralization [51] of 0.093 µg/mL. It also gave an IC50 (µg/mL), pseudovirus neutralization [52] of 1.28 µg/mL, an IC50, pseudovirus neutralization [53] greater than 50 µg/mL and an IC50, pseudovirus neutralization [54] of 0.371 µg/mL. For the same substance, the IC50 (µg/mL), pseudovirus neutralization [55] was greater than 50 µg/mL, the IC50 (µg/mL), pseudovirus neutralization [56] was 0.022 µg/mL and the IC50 (µg/mL), pseudovirus neutralization [57] was greater than 50 µg/mL. It also gave an IC50 [58] of 20.3 µg/mL and an IC50 (µg/mL), pseudovirus neutralization [59] greater than 50 µg/mL.
